# Reference: publication PMC8554075
# Target: unmutated common ancestor of the AB-3467 clonal lineage, expressed as human IgG1 (human V(D)J (Ig-humanized TRIANNI mouse))
# Assay: BLI
substance,measurement,value
SARS-CoV-2 receptor-binding domain (from UniProt P0DTC2 333-528) (domain or fragment),Kd,499 nM
